Results on one molecule are retold here after patent US20240084003A1.

The target of the experiment is monkey CD22 on HEK293T-monkey CD22 cells (monkey). Nature of the experiment: FACS, HEK293T-monkey CD22 cells.
Chain of monkey CD22 on HEK293T-monkey CD22 cells (monkey) (chain, as listed by the source limits assumed): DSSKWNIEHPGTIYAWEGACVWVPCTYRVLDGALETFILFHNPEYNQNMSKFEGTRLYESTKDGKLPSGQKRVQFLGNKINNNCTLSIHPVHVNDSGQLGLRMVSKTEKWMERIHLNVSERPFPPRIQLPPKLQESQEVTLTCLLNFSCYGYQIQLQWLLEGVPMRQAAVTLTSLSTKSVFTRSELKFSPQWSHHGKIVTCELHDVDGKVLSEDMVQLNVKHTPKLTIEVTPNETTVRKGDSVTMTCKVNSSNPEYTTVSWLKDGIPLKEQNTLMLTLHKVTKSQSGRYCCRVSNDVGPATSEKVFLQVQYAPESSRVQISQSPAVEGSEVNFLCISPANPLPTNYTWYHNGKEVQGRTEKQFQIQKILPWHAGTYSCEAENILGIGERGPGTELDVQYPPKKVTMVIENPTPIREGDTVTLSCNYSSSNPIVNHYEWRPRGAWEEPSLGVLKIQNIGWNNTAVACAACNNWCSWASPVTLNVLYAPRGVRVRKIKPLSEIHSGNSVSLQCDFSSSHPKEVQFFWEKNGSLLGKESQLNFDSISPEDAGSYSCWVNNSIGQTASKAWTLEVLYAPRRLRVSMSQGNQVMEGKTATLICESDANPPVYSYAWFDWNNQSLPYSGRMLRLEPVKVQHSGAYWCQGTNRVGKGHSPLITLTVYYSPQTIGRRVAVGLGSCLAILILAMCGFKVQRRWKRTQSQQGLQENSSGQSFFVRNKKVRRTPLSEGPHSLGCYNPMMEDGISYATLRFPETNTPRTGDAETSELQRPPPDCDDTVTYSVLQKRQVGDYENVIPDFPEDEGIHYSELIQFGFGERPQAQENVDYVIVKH

B1: F1.280.1 (antibody, human IgG1, kappa, V domains shown)
VH: QIQLVQSGPELKKPGETVKISCKASGYTFTTYGMSWVKQTPGKGLTWMGWINTDSGVPTYADDFKRRFAFSLEASATTAYLQINNLKNEDTATYFCARGGPDYWGQGTTLTVSS
VL: DILLTQSPATLSVTPGETVSLSCRASQSIYKNLHWYHQKSHRSPRLLIKYASDSISGIPSRFTGSGSGTNFTLSINSVKPEDEGIYYCLQGYIVPLTFGAGTKLELKR
B1 returned a Maximum mean fluorescence intensity of 1490 MFI.
